Reference: patent US11103562B2, “Composition comprising alkaline phosphatase for use in the treatment of arthritides” (AMRIF BV, priority 2017, dated 2021)

Tests used:
[1] = test system: ED1-, ED2- and FRβ-positive macrophages in liver and spleen; experiment: Macrophage infiltration in liver and spleen of arthritic rats (ED1/ED2 immunohistochemistry, FRβ immunofluorescence); assay type: in vivo, rat
Method: The arthritic and contralateral knees from all rats were dissected in toto and fixed for 7 days at 4° C. in 10% freshly made paraformaldehyde in PBS with 2% sucrose (pH=7.3) prior to decalcification in osteosoft (101728, Merck, Germany) for ˜2.5 weeks at room temperature. Thereafter, knees were embedded in paraffin. Sections of 5 μm were cut through the centre of the joint in longitudinal direction and stained with haematoxylin and eosin (HE) to assess the degree of inflammation in synovial tissue. Liver and spleen sections from all rats were dissected and fixed in 4% paraformaldehyde for 24 h before embedding in paraffin. Sections of 5 μm were cut and stained initially with HE and then for macrophages Staining for macrophages with ED1 (homologous to human CD68), and ED2 (homologous to human CD163, a marker for M2 anti-inflammatory macrophages), or isotype control antibody was performed. Images were captured using a Leica 4000B microscope and Leica digital camera DC500 (Microsystems B. V. Rijswijk, The Netherlands).
Liver and spleen tissues collected at the end of the study were snap frozen in liquid nitrogen and stored at −80° C. Tissues were embedded in appropriate media (OCT; SKU4583, Tissue-Tek, Netherlands), cut using a cryotome cryostat (−20° C.) (Leica, The Netherlands) and placed on Superfrost (4951PLUS4, ThermoFisher, The Netherlands) glass slides for immunofluorescence (IF) staining Sections of 8 μm were cut and stained with haematoxylin and eosin. […]
Stained slides of liver and spleen sections of arthritic rats and AP-treated arthritic rats were blinded and counted by two independent observers for FRβ, ED1- and ED2-positive synovial macrophages. For quantification, representative areas of liver and spleen sections were divided into 4 regions, each representing a central pulp and vein, respectively. The FRβ, ED1- and ED2-positive macrophages were counted at 400× magnification as described above. […] As a reference liver and spleen sections of healthy rats were analyzed as control.

[2] = Tolerability of therapeutic interventions in arthritic rats; assay type: in vivo
Method: All rats (except healthy) were immunized and arthritis was induced via 1× or 4× intra-articular (i.a) mBSA injections, 4 or 5 days apart in the arthritic (right) knee, the contralateral (left, non-arthritic) knee serving as control knee. For therapeutic interventions, AP (human recombinant placenta AP, TNO, Zeist, The Netherlands) was administered subcutaneously (s.c.) at a dose of 700 U/kg (≈200 μg), MTX (VU University Medical Centers' Pharmacy) was administered intra-peritoneal (i.p.) at two dosages: 0.3 mg/kg (low dose) and 1.0 mg/kg (high dose). The rats were divided in 8 groups, based on different treatments and treatment schedules. In a prophylactic setting, two rats received AP twice prior to intra-articular (i.a.) arthritis induction and four rats received AP twice prior to intra-articular and 4× PBS in between i.a. injections. In the treatment groups, arthritic rats were administered AP twice or 4× after arthritis induction, either as standalone therapy or in combination with low or high dose MTX. Control rats received 500 μL of PBS (i.p.). […] At the end of study, all rats were sacrificed and tissues were excised for further processing and various analyses.

[3] = rats; cited from earlier work
[4] = test system: macrophages
Method: At the end of the treatment period, arthritic rats receiving 4× AP, 4× AP/low dose MTX, 4× AP/high dose MTX treatment, and untreated rats, were administered with [^18F]fluoro-PEG-folate tracer. Sixty minutes after tracer administration, rats were sacrificed. Low and high dose MTX treated arthritic rats were sacrificed without tracer administration. Upon sacrificing, all rats were excised and knees, blood and various internal organs were collected, rinsed, dipped dry, weighed and the amount of radioactivity determined using an LKB 1282 Compugamma CS gamma counter (LKB, Wallac, Turku, Finland). Results for tracer uptake in the various tissues were expressed as percentage of the injected dose per gram tissue (%ID/g).

[5] = 4x AP, 60 min post tracer injection
[6] = arthritic rats, 60 min after tracer

B1: AP: human recombinant placenta alkaline phosphatase (hRESCAP; TNO, Zeist), an ectophosphatase (protein, UniProt P05187 23-506, looked up)
Alkaline phosphatase, …: IIPVEEENPDFWNREAAEALGAAKKLQPAQTAAKNLIIFLGDGMGVSTVTAARILKGQKKDKLGPEIPLAMDRFPYVALSKTYNVDKHVPDSGATATAYLCGVKGNFQTIGLSAAARFNQCNTTRGNEVISVMNRAKKAGKSVGVVTTTRVQHASPAGTYAHTVNRNWYSDADVPASARQEGCQDIATQLISNMDIDVILGGGRKYMFRMGTPDPEYPDDYSQGGTRLDGKNLVQEWLAKRQGARYVWNRTELMQASLDPSVTHLMGLFEPGDMKYEIHRDSTLDPSLMEMTEAALRLLSRNPRGFFLFVEGGRIDHGHHESRAYRALTETIMFDDAIERAGQLTSEEDTLSLVTADHSHVFSFGGYPLRGSSIFGLAPGKARDRKAYTVLLYGNGPGYVLKDGARPDVTESESGSPEYRQQSAVPLDEETHAGEDVAVFARGPQAHLVHGVQEQTFIAHVMAFAACLEPYTACDLAPPAGTTD
[1]; AP-treated vs saline-treated arthritic rats
  reduction of both ED1- and ED2-positive infiltrating macrophages in spleen: ~30%
[1]; AP-treated vs saline-treated arthritic rats, p<0.001
  decrease of both ED1- and ED2-positive infiltrating macrophages in liver: ~50%
[1]; after AP treatment, arthritic rats
  FRβ-positive macrophages in liver and spleen: lowered number
[2]
  changes in body weight: nor were significant changes in the body weight observed
[2]; AP 700 U/kg, MTX 0.3 or 1.0 mg/kg
  tolerability / adverse effects: well tolerated
[3]
  half life time: ≈ 3 days
[4]; [5]
  [^18F]fluoro-PEG-folate uptake, Heart, Avg: 0.117 % ID/g
  [^18F]fluoro-PEG-folate uptake, Liver, Avg: 0.151 % ID/g
  [^18F]fluoro-PEG-folate uptake, Lung, Avg: 0.111 % ID/g
  [^18F]fluoro-PEG-folate uptake, Spleen, Avg: 0.779 % ID/g
[4]; [6]
  [^18F]fluoro-PEG-folate uptake in kidney and intestine (in words): not impacted
  [^18F]fluoro-PEG-folate uptake in lung, heart, liver and spleen (in words): reductions
